Experiment [1] addresses Env of HIV-1 strain YU2.DG (HIV-1).
For experiment [2], the target named is SC4226618 (Human immunodeficiency virus 1).
Experiment [3] has as its target Tro11 (Human immunodeficiency virus 1).

On to “chimeric IgG: 8ANC195 HC paired with the LC from 3BNC117 (antibody)”, for which the IC50 (fold change over 8ANC195 IgG), pseudovirus neutralization [panel B] stood at 12 fold in experiment [1], 32 fold in experiment [2] and 17 fold in experiment [3].

Values taken from patent publication US20180171001A1.
